Experimental findings from article PMC4605657, “Interaction between TATA-Binding Protein (TBP) and Multiprotein Bridging Factor-1 (MBF1) from the Filamentous Insect Pathogenic Fungus Beauveria bassiana” are described below.

The target of this data set is BbMBF1 (multiprotein bridging factor 1) (Beauveria bassiana, UniProt J4WFU2 1-153). Briefly: EMSA; Binding buffer (4 ul in 20 ul reaction): 60 mM KCl, 20 mM Tris pH 7.9, 5 mM MgCl2, 10 mM DTT, 0.2 mg/ml BSA, 10% glycerol; 30 min at 37 C; 6% non-denaturing PAGE. To be noted: protein: recombinant; tags: 6xHis (C-terminal; pET28a, thrombin site); blunt.

B1: TATAP (dsDNA)
DNA 1: GGAGCGGCATATGTCAAGTATAAAGAGCGGAATGTTTTTC
DNA 2: GAAAAACATTCCGCTCTTTATACTTGACATATGCCGCTCC
In the case of B1, the binding result is “no binding”.

B2: TATAC (dsDNA)
DNA 1: CAGTAAAAGCTTGGTAGTATTTATATCTTCTCTCTTTCAC
DNA 2: GTGAAAGAGAGAAGATATAAATACTACCAAGCTTTTACTG
As for B2, the binding result is listed as “no binding”.

B3: TATA0 (dsDNA)
DNA 1: CAGTAAAAGCTTGGTAGTATTTCTTCTCTCTTTCAC
DNA 2: GTGAAAGAGAGAAGAAATACTACCAAGCTTTTACTG
Regarding B3, the binding result is given as “no binding”.
